The values below come from PMC6469808.

Experiment [1] addresses Zika virus NS5, full length, wild type (Suriname ZIKV human isolate Z1106033), C-terminal 6xHis tag (Zika virus (Suriname human isolate Z1106033)). As to the kind of experiment: SEC-MALS; Superdex 200 10/300 GL; 50 mM MES pH 6.0, 500 mM NaCl, 10% glycerol, 5 mM DTT; monomer-dimer. A general note: In gel filtration, larger molecules generally elute earlier.
Experiment [2] shares this target. As to the kind of experiment: SAXS; 6 mg/ml NS5 (highest concentration); 50 mM MES pH 6.0, 500 mM NaCl, 10% glycerol, 5 mM DTT; 10 °C.
Experiment [3] shares this target. Kind of experiment: SEC-MALS; Superdex 200 10/300 GL; 50 mM HEPES pH 7.0, 500 mM NaCl, 10% glycerol, 5 mM DTT; monomer-dimer.
Experiment [4] shares this target. As to the kind of experiment: AUC; sedimentation velocity, 20 °C, 43,000 rpm, 0.5 mg/ml protein; 50 mM HEPES pH 7.0, 500 mM NaCl, 5% glycerol, 0.4 mM DTT.
The target of experiment [5] is Zika virus NS5 Y25A/K28S/K29A variant, full length, C-terminal 6xHis tag (Zika virus (Suriname human isolate Z1106033)).

Consider “Zika virus NS5, full length, wild type (Suriname ZIKV human isolate Z1106033), C-terminal 6xHis tag (from UniProt A0A024B7W1 2521-3423) (natural protein)”, for which, in experiment [1], the percent of the sample mass in the dimer peak is 4% and the stoichiometry N (in general, a count of units in the complex or per binding partner) came out at 2. Besides, the stoichiometry N in experiment [2] worked out at 2. Moreover, in experiment [3], the percent abundance of the dimer peak was 10.4% and the stoichiometry N amounted to 2. In addition, in experiment [4], the percent abundance of the dimer species amounted to 12%, the percent of the sample as oligomer came to 5.1% and the stoichiometry N was determined as 2.
For “Zika virus NS5 Y25A/K28S/K29A variant, full length, C-terminal 6xHis tag (natural protein)”, the RNA primer extension (polymerase elongation) activity at 900, 180, 18, 9 nM enzyme, variant against wild type NS5 in experiment [5] came to 3 fold.
